Experimental data: patent US20250368742A1 (D2M BIOTHERAPEUTICS, published 2025)
Changes are numbered by the printed parent chain.

T1: MICA008-ECD-HISAvi (human)
T1 construct: Two sources under one name in the two kinetic assays; also called MICA008 polypeptide
T1 chain: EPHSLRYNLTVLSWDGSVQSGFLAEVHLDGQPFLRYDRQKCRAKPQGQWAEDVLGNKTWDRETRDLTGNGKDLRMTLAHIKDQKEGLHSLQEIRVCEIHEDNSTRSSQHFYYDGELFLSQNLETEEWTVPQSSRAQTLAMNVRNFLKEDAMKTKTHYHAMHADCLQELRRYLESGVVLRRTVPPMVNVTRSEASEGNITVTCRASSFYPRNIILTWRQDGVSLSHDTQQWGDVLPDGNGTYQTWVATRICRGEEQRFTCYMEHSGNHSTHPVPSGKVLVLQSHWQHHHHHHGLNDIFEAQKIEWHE

T2: MICB005-ECD-HISAvi (human, UniProt Q29980 24-309)
T2 construct: Two sources under one name in the two kinetic assays; also called MICB005 polypeptide
T2 sequence: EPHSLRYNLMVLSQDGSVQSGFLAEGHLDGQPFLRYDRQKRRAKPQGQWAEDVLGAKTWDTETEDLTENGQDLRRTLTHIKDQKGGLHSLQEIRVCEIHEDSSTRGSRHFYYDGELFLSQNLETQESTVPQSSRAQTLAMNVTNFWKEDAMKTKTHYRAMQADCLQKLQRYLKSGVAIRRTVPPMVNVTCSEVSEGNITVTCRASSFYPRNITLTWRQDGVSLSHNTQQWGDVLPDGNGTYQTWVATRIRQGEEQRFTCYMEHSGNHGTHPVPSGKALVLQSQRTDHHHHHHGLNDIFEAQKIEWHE

T3: MICA002-ECD-HISAvi (human, UniProt Q29983 24-308)
T3 construct: also called MICA002 polypeptide
T3 chain: T1 chain with W14G, Y36C, V129M, E173K, S206G, R210W, I213T, T215S, R251Q

T4: MICA004-ECD-HISAvi (human)
T4 construct: also called MICA004 polypeptide
T4 chain: T1 chain with L122V, G175S, T181R, I213T, R251Q

T5: human MICA002 on cells (human)
T5 chain: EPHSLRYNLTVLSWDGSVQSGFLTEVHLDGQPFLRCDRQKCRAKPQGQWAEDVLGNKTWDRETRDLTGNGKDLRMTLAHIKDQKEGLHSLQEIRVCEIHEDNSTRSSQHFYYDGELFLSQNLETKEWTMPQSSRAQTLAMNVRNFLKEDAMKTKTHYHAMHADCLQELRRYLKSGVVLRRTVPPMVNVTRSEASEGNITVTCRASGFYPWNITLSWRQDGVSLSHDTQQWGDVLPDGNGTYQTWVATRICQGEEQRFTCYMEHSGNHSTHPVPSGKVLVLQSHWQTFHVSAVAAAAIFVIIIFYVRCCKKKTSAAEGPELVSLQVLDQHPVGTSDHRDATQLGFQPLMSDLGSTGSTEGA

B1: #38 (antibody, human IgG1, V domains shown)
VH: QVQLQQSGAELARPGASVKLSCKASGYTFSIHWMQWVKQRPGQGLEWIGAIYPGNGDTKYTQKFKGKATLTADKSSSTAYMQLSNLASEDSAVYYCATLYGNYEAYWGQGTLVTVSA
VL: DIVLTQSPASLSASVGETVTITCGASENIYGALNWYQRKQGKSPQLLIYGTTNLADGMSSRFSGSGSGRQYSLKISSLHPDDVATYYCQNVLTTPPWTFGGGTKLEIK
notes: also called PL114H02; Hit ID 38
B2: #31 (antibody, human IgG1, V domains shown)
VH: EVQLQQSGPELVKPGASVKVSCKASGYAFTKYNIYWVKQSHGKSLEWIGYIDPYNGGTVQNQKFKGKATLTVDKSSSTAYMHLNSLTSEDSAVYYCATTDGYSLFTYWGQGTLVTVSS
VL: DIQMTQTTSSLSASLGDRVTISCRASQDIGNYLNWYQQKPDGTVKLLIYYTSRLHSGVPSRFSGSGSGTDYSLTISNLEQEDIATYFCQQGNTLPFTFGSGTKLEIK
notes: also called PL116D11; Hit ID 31
B3: #34 (antibody, human IgG1, V domains shown)
VH: B2 VH with E1Q, Q5K
VL: DIVLTQSPTTMAASPGEKITITCSASSSISSNYLHWYQQKPGFSPKLLIYRTSNLASGVPARFSGSGSGTSYSLTIGTMEAEDVATYYCQQGSSIPFTFGSGTKLEIK
notes: also called PL111H04; Hit ID 34
B4: #40 (antibody, human IgG1, V domains shown)
VH: B2 VH with E1Q, Q60Y, S118A
VL: DIQMTQTTSSLSASLGDRVTITCSAGQGINNYLNWYQQKPDGTVKLLIFYTSSLQSGVPSRFSGSGSGADYSLTISNLEPEDIATYYCQQYSKLPLTFGAGTKLELK
notes: also called PL113C03; Hit ID 40
B5: #36 (antibody, human IgG1, V domains shown)
VH: B2 VH with E1Q, Q60Y, S118A
VL: B2 VL with G30S
notes: also called PL116H11; Hit ID 36
B6: #39 (antibody, human IgG1, V domains shown)
VH: QVQLQQSGAELVRPGTSVKVSCKASGYAFTDYLIEWVKQRPGQGLEWIGGINPGSGSTNYNEKFKGKAILTADKSSSTAYMQLSSLTSDDSAVYFCARLDGNYVGYWGQGTTLTVSS
VL: DILLTQSPASLSASVGETVTITCRASGNIHNYLAWYQQKQGKSPQLLVYHAKTLADGVPSRFSGSGSGTQYSLKINSLQPEDFGSYYCQHFWSTPWTFGGGTKLEIK
notes: also called PL114G03; Hit ID 39

Each binder was assayed against T6, human MICA008 on cells (human) (assay: flow cytometry, HeLa cells (MICA008)).
T6 construct: whole, on cells; also called CHO-MICA008; C1R-MICA008
T6 sequence (Q29983 whole entry): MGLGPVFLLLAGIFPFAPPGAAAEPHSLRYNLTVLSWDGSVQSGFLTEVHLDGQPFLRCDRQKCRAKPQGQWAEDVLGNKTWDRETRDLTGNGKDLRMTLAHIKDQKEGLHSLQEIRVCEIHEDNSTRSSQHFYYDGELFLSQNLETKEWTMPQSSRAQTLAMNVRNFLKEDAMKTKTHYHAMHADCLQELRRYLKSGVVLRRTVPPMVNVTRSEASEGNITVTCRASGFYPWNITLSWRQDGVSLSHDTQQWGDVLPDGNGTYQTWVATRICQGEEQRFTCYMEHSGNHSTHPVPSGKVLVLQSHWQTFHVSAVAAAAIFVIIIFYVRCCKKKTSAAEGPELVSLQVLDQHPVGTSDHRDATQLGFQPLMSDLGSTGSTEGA
Protocol: (§1) IgG1 is an isotype control (IgG). The antibody binding signals of APC (gMFI) to MICA/B were measured by flow cytometry.
(§2) After an incubation time of 30 minutes, the plate was centrifuged and cells were washed with PBS three times. […] After mixing for 30 minutes at room temperature, cells were washed with PBS twice. Fluorescent signal was detected and quantified by flow cytometry (Attune™ CytPix™, ThermoFisher) within the population of live cells (viability dye PI negative).

EC50 [µg/mL]	Binder
1.85	B1
0.183	B2
0.122	B3
0.183	B4
0.189	B5
4.27	B6

What follows are binders tested against T6, human MICA008 on cells (assay: flow cytometry, CHO-MICA008 cells).
Protocol: as §1, §2

EC50 [µg/mL]	Binder
1.1	B1
0.051	B2
0.048	B3
0.085	B4
0.063	B5
1.31	B6

Molecular target: T1, MICA008-ECD-HISAvi
Assay: SPR (Carterra); antibody captured by anti-human Fc, monomeric ECD antigen injected;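 further: dissociation phase followed for about 10 min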
Protocol: (§3) The dissociation kinetics were monitored for approximately 10 minutes. The chip surface was regenerated between binding cycles with 10 mM glycine HCl, pH 1.7. Binding kinetics were analyzed using software supplied by the manufacturer.

Kd [nM]	Binder
7.04	B1
14.4	B2
29.2	B3
20.5	B4
21.2	B5
54.8	B6

What follows are binders tested against T2, MICB005-ECD-HISAvi in the same assay as above.
Protocol: as §3

Kd [nM]	Binder
1.78	B1
15	B2
38	B3
45.8	B4
23.1	B5
5.37	B6

Molecular target: T3, MICA002-ECD-HISAvi
Assay: as above
Protocol: as §3

Kd [nM]	Binder
2.49	B1
13.2	B2
24.9	B3
13.9	B4
20.7	B5
14.4	B6

Molecular target: T4, MICA004-ECD-HISAvi
Assay: as above
Protocol: as §3

Kd [nM]	Binder
3.77	B1
25.3	B2
44.5	B3
30.4	B4
40.1	B5
139	B6

These binders were tested against T7, human MICB005 on cells (human) (assay: flow cytometry, CHO-MICB005 cells).
T7 construct: whole, on cells; also called CHO-MICB005; C1R-MICB005
Protocol: as §1, §2

EC50 [µg/mL]	Binder
1.42	B1
0.21	B2
0.278	B3
0.445	B4
0.249	B5
1.4	B6

Molecular target: T5, human MICA002 on cells
Assay: flow cytometry, CHO-MICA002 cells
Protocol: CHO-MICA002 cells were incubated with titrated anti-MICA/B antibodies and then APC-labeled anti-human Fc antibody. […] The antibody binding signals of APC (gMFI) to MICA/B were measured by flow cytometry.
as §2

EC50 [µg/mL]	Binder
2.48	B1
0.232	B2
0.144	B3
0.176	B4
0.2	B5
3.68	B6

The binders below were run against T8, human MICA004 on cells (human) (assay: flow cytometry, CHO-MICA004 cells).
T8 construct: whole, on cells; also called CHO-MICA004; C1R-MICA004
T8 sequence (Q29983 whole entry): as above
Protocol: as §1, §2

EC50 [µg/mL]	Binder
3.93	B1
0.221	B2
0.202	B3
0.306	B4
0.248	B5
7.27	B6
